Laboratory results published in paper PMC10711553, “Structural and biochemical analysis of the PARP1-homology region of PARP4/vault PARP”.

What was measured:
PARP4 BRCT-WGR-CAT [1] = target: T1, PARP4 BRCT-WGR-CAT (Homo sapiens, UniProt Q9UKK3 1-573); assay: EMSA; 100 nM RNA; apparent Kd; FP: 50 mM Tris pH 7.5, 50 mM NaCl, 0.05% NP40, 2 mM DTT, 5% glycerol, room temperature 30 min; EMSA: same but 20% glycerol, 100 nM nucleic acid, room temperature 30 min, gel at 4 C in Tris-glycine; settings: protein: recombinant, tags: N-terminal His-SUMO tag, cleaved with TEV, Mfold secondary structure, annealed
T1 sequence: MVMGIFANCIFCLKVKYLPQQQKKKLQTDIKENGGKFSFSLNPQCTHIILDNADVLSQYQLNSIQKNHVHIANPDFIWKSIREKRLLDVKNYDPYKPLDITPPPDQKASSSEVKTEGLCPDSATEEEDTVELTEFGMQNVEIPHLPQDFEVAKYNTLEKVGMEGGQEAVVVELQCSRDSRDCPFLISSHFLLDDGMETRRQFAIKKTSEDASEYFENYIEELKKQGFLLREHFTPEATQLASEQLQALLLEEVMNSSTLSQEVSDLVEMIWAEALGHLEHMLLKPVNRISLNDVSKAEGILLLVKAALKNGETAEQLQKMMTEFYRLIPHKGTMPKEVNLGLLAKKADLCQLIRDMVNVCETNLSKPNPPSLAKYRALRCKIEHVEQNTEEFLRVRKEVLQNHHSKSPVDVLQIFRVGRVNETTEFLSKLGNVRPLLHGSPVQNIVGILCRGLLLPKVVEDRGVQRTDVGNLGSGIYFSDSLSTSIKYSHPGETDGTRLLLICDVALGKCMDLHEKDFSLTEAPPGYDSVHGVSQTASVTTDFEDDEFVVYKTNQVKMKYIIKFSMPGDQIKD

PARP4 WGR-CAT [2] = target: T2, PARP4 WGR-CAT (Homo sapiens, UniProt Q9UKK3 95-573); assay: fluorescence polarization; 30 nM RNA; FP: 50 mM Tris pH 7.5, 50 mM NaCl, 0.05% NP40, 2 mM DTT, 5% glycerol, room temperature 30 min; EMSA: same but 20% glycerol, 100 nM nucleic acid, room temperature 30 min, gel at 4 C in Tris-glycine; settings: protein: recombinant; tags: N-terminal His-SUMO tag, cleaved with TEV; label: 5'-6-FAM; Mfold secondary structure, annealed
T2 sequence: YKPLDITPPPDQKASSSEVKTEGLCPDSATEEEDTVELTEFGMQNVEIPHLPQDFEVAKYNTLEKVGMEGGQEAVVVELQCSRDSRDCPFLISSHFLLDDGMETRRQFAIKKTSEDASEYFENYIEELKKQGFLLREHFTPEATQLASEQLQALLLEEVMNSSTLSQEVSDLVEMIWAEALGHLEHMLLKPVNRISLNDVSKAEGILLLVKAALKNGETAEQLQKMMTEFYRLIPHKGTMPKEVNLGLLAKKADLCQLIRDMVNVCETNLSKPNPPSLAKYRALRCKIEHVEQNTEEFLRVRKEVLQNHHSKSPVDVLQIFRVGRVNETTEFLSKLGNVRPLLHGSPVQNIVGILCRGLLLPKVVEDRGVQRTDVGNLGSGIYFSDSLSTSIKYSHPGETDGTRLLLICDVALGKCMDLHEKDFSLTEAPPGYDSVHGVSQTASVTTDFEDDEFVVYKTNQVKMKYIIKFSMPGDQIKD

PARP4 BRCT-WGR-CAT [3] = target: T1, PARP4 BRCT-WGR-CAT; assay: fluorescence polarization; 30 nM RNA; apparent Kd; FP: 50 mM Tris pH 7.5, 50 mM NaCl, 0.05% NP40, 2 mM DTT, 5% glycerol, room temperature 30 min; EMSA: same but 20% glycerol, 100 nM nucleic acid, room temperature 30 min, gel at 4 C in Tris-glycine; settings: protein: recombinant; tags: N-terminal His-SUMO tag, cleaved with TEV; label: 5'-6-FAM; Mfold secondary structure, annealed
PARP4 WGR-CAT [4] = target: T2, PARP4 WGR-CAT; assay: EMSA; 100 nM DNA; FP: 50 mM Tris pH 7.5, 50 mM NaCl, 0.05% NP40, 2 mM DTT, 5% glycerol, room temperature 30 min; EMSA: same but 20% glycerol, 100 nM nucleic acid, room temperature 30 min, gel at 4 C in Tris-glycine; settings: protein: recombinant; tags: N-terminal His-SUMO tag, cleaved with TEV; label: none stated (SYBR Gold stain); blunt
PARP4 WGR-CAT [5] = target: T2, PARP4 WGR-CAT; assay: EMSA; 100 nM RNA; FP: 50 mM Tris pH 7.5, 50 mM NaCl, 0.05% NP40, 2 mM DTT, 5% glycerol, room temperature 30 min; EMSA: same but 20% glycerol, 100 nM nucleic acid, room temperature 30 min, gel at 4 C in Tris-glycine; settings: protein: recombinant; tags: N-terminal His-SUMO tag, cleaved with TEV; label: none (SYBR Gold stain); Mfold secondary structure, annealed

B1: vtRNA1-2 (structured_RNA)
RNA: GGCUGGCUUUAGCUCAGCGGUUACUUCGAGUACAUUGUAACCACCUCUCUGGGUGGUUCGAGACCCGCGGGUGCUUUCCAGCUCUUUU
For B1, the Kd (PARP4 BRCT-WGR-CAT [1]; label: 5'-6-FAM) was 1.5 ± 0.4 µM, the binding result (PARP4 WGR-CAT [2]) was “no binding” and the Kd (PARP4 BRCT-WGR-CAT [3]) was 15 ± 9 µM.

B2: 47-bp DNA duplex (dsDNA)
DNA 1: CAGATCTACCGAATCAGTCCGACGACGCATCTGCACTACGAGGATAC
DNA 2: GTATCCTCGTAGTGCAGATGCGTCGTCGGACTGATTCGGTAGATCTG
B2: no binding (PARP4 WGR-CAT [4]).

B3: HDV ribozyme RNA (84 nt) (structured_RNA)
RNA: GCCGGCCAUGGUCCCAGCCUCCUCGCUGGCGGCCGGUGGGCAACAUUCCGAGGGGACCGUCCCUCGGUAAUGGCGAAUGGGACA
For B3, the binding result (PARP4 WGR-CAT [5]) was “no binding” and the Kd (PARP4 BRCT-WGR-CAT [1]; label: none (SYBR Gold stain)) was 3.4 ± 0.3 µM.
